The subject of the data set is MS2 coat protein. Description: apparent KD of MS2 coat protein; designed switch direction (-1 OFF switch, 1 ON switch): -1; higher = weaker reporter binding. The method in brief: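 Apparent KD, taken as the median over clusters for each design, was obtained by curve-fitting normalised cluster fluorescence. Designed RNA switches had been transcribed on Illumina chips by stalled E. coli RNA polymerase and titrated with SNAP-549-labelled MS2 coat protein, doubling from 0.7 or 1.5 nM to 3 µM.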

Setting [1] is: Eterna round: R95, input ligand: FMN 200 uM.
Setting [2] is: Eterna round: R95, input ligand: microRNA oligo, concentration not stated.
[3] abbreviates: Eterna round: R95, input ligand: none.
[4] abbreviates: input ligand: microRNA oligo, concentration not stated.

As to “CGAGGUAGAGGAUAUACGUGGAUGUAAAUUCAUGAUAUUCUACAUGAGGAUCACCCAUGUAGAAGGCUAUAGCG [JR_Ex2_Sub077] (Eterna round: R97, puzzle: Exclusion 2)”, the “apparent KD of MS2 coat protein” value (input ligand: FMN 200 uM) came to 26.9 nM and the “apparent KD of MS2 coat protein” value (input ligand: none) is 18 nM.

With “GUACUAAGUGUGAGGAUAUCACAGGACGUUCACUAUGAGAAGGUACAUGAGGAUCACCCAUGUAUCGUGGGUCA [Eternabot (Original) Solution 7] (Eterna round: R97, puzzle: Brourd's mod of Exclusion 4)”, the “apparent KD of MS2 coat protein” value by setting is: (input ligand: FMN 200 uM) 20.3 nM; (input ligand: none) 17.7 nM.

On to “CAGUACUACAAGCUUUGGGACAUGAGGAUCACCCAUGUUCGUCUUAUUGAUCUAGGUACGCUGACGUACCUAGAUCU [JL-sv1-2.11 Brourd mod] (puzzle: Sensor v3, turn-off variant 1)”, for which the “apparent KD of MS2 coat protein” value is, setting by setting: under setting [1], 16.7 nM; under setting [2], 33.1 nM; under setting [3], 15.3 nM.

Turning to “UACUGGACAGGAUAUGUACUUGAGCACUUGAGGAUCACCCAAGUCAUCAAGUACUCAGGCACAGAAGGGUUAAUUU [jl-ex5.4.64 ViennaUCT mod] (Eterna round: R97, puzzle: Exclusion 5)”, the “apparent KD of MS2 coat protein” value reads like this: (input ligand: FMN 200 uM) 330 nM; (input ligand: none) 129 nM.

As to “CCUCCGGUGCGAGGAUAUCUGGCGGCCGCCGGUGGAGAAGGCGUACAUGAGGAUCACCCAUGUCCAGCGUGCUCCUCGCUGGUU [0.15] (Eterna round: R96, puzzle: Exclusion NG 1)”, the “apparent KD of MS2 coat protein” value (input ligand: FMN 200 uM) was determined as 75 nM, the “apparent KD of MS2 coat protein” value under setting [4] was 19.9 nM and the “apparent KD of MS2 coat protein” value (input ligand: none) is 31 nM.

Take “GAUCUACAUGAGGAUCACCCAUGUAAGGAUAUCUACAUUGAAGCUUCGGCUUCAAUGUAGAGAAGGUACAAUUA [E1/10-B1] (Eterna round: R97, puzzle: Exclusion 1)”: the “apparent KD of MS2 coat protein” value runs as follows: (input ligand: FMN 200 uM) 40.7 nM; (input ligand: none) 27.9 nM.

For the sequence “CACCGUUAAGGAGGAUAUCGUACAUGAGGAUCACCCAUGUAAUAAAUGAGAAUUUCGGAUGUAUGCGAGAAGGCCUAAAUCGGC [Ostracism 44 - Jieux - Exclusion NG 2] (Eterna round: R96, puzzle: Exclusion NG 2)”, the “apparent KD of MS2 coat protein” value under setting [4] was determined as 34.7 nM.

Regarding “AAGAAACGAGGAUAUACAGUUGAGUGAGGGAUGUUAGUGUUACAUGAGGAUCACCCAUGUAGAAGGCGUGAGAG [JR_Exclu2_Sub091] (puzzle: Exclusion 2)”, the “apparent KD of MS2 coat protein” value is, setting by setting: under setting [1], 66.4 nM; under setting [2], 32.2 nM; under setting [3], 36.2 nM.

On to “AUUUAAACAUAGGAUAUCGAAUUUAUUAUUUAACGAGAAGGAUGAACAUGAGGAUCACCCAUGUGGUAUCAUGG [Mat - Exclusion 6 - JL Mod - D25] (puzzle: Exclusion 6)”, for which the “apparent KD of MS2 coat protein” value reads like this: under setting [1], 693 nM; under setting [2], 815 nM; under setting [3], 260 nM.

As to “AGAAACAGAGGAUAUCGCGGACAGCACAUGAGGAUCACCCAUGUGAUGCUCCGCGGGCCGCGAGAAGGCUGAAAUG [Rateatge] (puzzle: Exclusion 5)”, the “apparent KD of MS2 coat protein” value by setting is: under setting [1], 29.3 nM; under setting [2], 12.2 nM; under setting [3], 14.1 nM.

As to “CUGAGGUAAGGAUAUAGGAGAGAAGAUAAGGUAUGAGAGUUCUAGAAGGUACAUGAGGAUCACCCAUGUUAGGG [JR_Exclu4_Sub087] (puzzle: Exclusion 4)”, the “apparent KD of MS2 coat protein” value under setting [2] amounted to 252 nM.

With “CCCAUAUUGGAAGGAUAUUACCACAUGAGGAUCACCCAUGUGGUUUAAGGCUUACAACGACGUGGUAAGAAGGUCCAUUAUAUG [Eternabot solution 45] (Eterna round: R96, puzzle: Exclusion NG 2)”, the “apparent KD of MS2 coat protein” value (input ligand: FMN 200 uM) stood at 28.1 nM, the “apparent KD of MS2 coat protein” value under setting [4] is 13.7 nM and the “apparent KD of MS2 coat protein” value (input ligand: none) turned out to be 15.4 nM.

These data come from the supplement of paper PMC9170038.
